Experimental data published in patent publication US20250222069A1 (ACCELERON PHARMA, published 2025).

T1: GDF11 (UniProt O95390 299-407)
T1 construct: also called BMP11
T1 sequence (looked up): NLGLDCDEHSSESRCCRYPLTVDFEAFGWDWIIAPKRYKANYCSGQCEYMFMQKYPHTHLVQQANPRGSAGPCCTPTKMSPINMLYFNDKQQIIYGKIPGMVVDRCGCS


Biological target: T1, GDF11
Test: Biacore; ligand coupled to chip, receptor flowed over (table reproduced from WO2006/012627)

| Binder | binding as fraction of WT binding |
| --- | --- |
| Soluble ActRIIB-Fc D80I (Fc fusion, not shown: a dimerising Fc or GST, From WO2006/012627; background 64A inferred) SGRGEAETRECIYYNANWELERTNQSGLERCEGEQDKRLHCYASWANSSGTIELVKKGCWLIDFNCYDRQECVATEENPQVYFCCCEGNFCNERFTHLPEA | < 0.2 fold |
| Soluble ActRIIB-Fc K74I (Fc fusion, not shown: a dimerising Fc or GST, From WO2006/012627; background 64A inferred) SGRGEAETRECIYYNANWELERTNQSGLERCEGEQDKRLHCYASWANSSGTIELVIKGCWLDDFNCYDRQECVATEENPQVYFCCCEGNFCNERFTHLPEA | < 0.2 fold |

Second part, the binder after the results:

| binding as fraction of WT binding | Binder |
| --- | --- |
| < 0.2 fold | Soluble ActRIIB-Fc K74Y (Fc fusion, not shown: a dimerising Fc or GST, From WO2006/012627; background 64A inferred) SGRGEAETRECIYYNANWELERTNQSGLERCEGEQDKRLHCYASWANSSGTIELVYKGCWLDDFNCYDRQECVATEENPQVYFCCCEGNFCNERFTHLPEA |
| < 0.2 fold | Soluble ActRIIB-Fc K74F (Fc fusion, not shown: a dimerising Fc or GST, From WO2006/012627; background 64A inferred) SGRGEAETRECIYYNANWELERTNQSGLERCEGEQDKRLHCYASWANSSGTIELVFKGCWLDDFNCYDRQECVATEENPQVYFCCCEGNFCNERFTHLPEA |
